Values quoted from earlier work, collected in PMC8900292.
pKd: −log10 of the molar value.

Target: VAMP2 juxtamembrane LD (UniProt P63027)
UniProt P63027, sequence (P63027 whole entry, looked up): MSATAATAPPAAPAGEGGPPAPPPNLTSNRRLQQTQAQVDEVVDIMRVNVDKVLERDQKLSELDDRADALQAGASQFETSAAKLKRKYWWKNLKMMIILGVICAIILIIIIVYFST

pKd: 5.00
Substance: Munc13-1 MUN (from UniProt Q62768)
